Results: patent publication US20150064204A1 (Amgen, published 2015)
Positions count from the first letter of the chain named.

Assays:
human GITR [1] = target: T1, human GITR (human, UniProt Q9Y5U5 26-241); test: cell-based or functional assay
T1 sequence: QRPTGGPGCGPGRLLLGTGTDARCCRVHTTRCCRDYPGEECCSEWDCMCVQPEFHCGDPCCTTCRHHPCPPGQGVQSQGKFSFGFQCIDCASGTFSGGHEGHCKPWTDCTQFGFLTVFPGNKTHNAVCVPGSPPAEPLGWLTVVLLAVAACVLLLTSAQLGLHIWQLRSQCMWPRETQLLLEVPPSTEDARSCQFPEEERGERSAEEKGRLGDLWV

human GITR [2] = target: T1, human GITR; test: flow cytometry on activated human T cells
[3] = target: T2, human GITR (Glucocorticoid-induced TNFR-related gene, TNFRSF18) (human, UniProt Q9Y5U5 26-241); test: cell-based or functional assay
T2 sequence: T1 sequence

[4] = target: T2, human GITR (Glucocorticoid-induced …); test: flow cytometry (MFI), antibody titration on anti-CD3-activated primary human T cells (CD25+CD4+)

B1: 5H7 (antibody, human IgG1, kappa, V domains shown)
VH: QVQLQESGPGLVKPSQTLSLTCTVSGGSISSGGYFWSWIRQHPGKGLEWIGYIYYSGTTYYNPSLKSRVTISIDTSKNHFSLKLSSVTAADTAVYYCARDLFYYDSSGPRGFDPWGQGTLVTVSS
VL: EIVLTQSPGTLSLSPGERATLSCRASQTVSSNYLAWYQQKPGQAPRLLIYGSSTRATGIPDRFSGSGSGTDFTLTISRLEPEDFAVYYCQQYDSSPWTFGQGTKVEIKR
notes: Parental fully human antibody; also called Ab17; SS-10943
Human GITR [1]
  Proliferation (Fold over CD3): 3.4 fold over CD3
  Proliferation EC50: 0.008 µg/mL
Human GITR [2]
  EC50: 0.303 µg/mL

B2: 5H7v18 (antibody, human IgG1, kappa, V domains shown)
VH: B1 VH with Q16E, H42P, H79Q, D113E
VL: B1 VL with S94T
notes: Engineered variant; also called Ab36; SS-16928
Human GITR [1]
  Proliferation (Fold over CD3): 2.7 fold over CD3
  Proliferation EC50: 0.012 µg/mL
Human GITR [2]
  EC50: 0.804 µg/mL

B3: 5H7v3 (antibody, human IgG1, kappa, V domains shown)
VH: B1 VH with Q16E, H42P, H79Q, D113E
VL: B1 VL
notes: Engineered variant; also called Ab27; SS-16913
Human GITR [1]
  Proliferation (Fold over CD3): 3.2 fold over CD3
  Proliferation EC50: 0.015 µg/mL
Human GITR [2]
  EC50: 0.293 µg/mL

B4: 5H7v22 (antibody, human IgG1, kappa, V domains shown)
VH: B1 VH with Q16E, H42P, H79Q, S106T, D113E
VL: B1 VL with D93E
notes: Engineered variant; also called Ab38; SS-16932
Human GITR [1]
  Proliferation (Fold over CD3): 1.7 fold over CD3
  Proliferation EC50: 0.027 µg/mL
Human GITR [2]
  EC50: 0.786 µg/mL

B5: 5H7v14 (antibody, human IgG1, kappa, V domains shown)
VH: B1 VH with Q16E, H42P, H79Q, D113E
VL: B1 VL with D93E
notes: Engineered variant; also called Ab34; SS-16924
Human GITR [1]
  Proliferation (Fold over CD3): 1.9 fold over CD3
  Proliferation EC50: 0.031 µg/mL
Human GITR [2]
  EC50: 0.995 µg/mL

B6: 5H7v7 (antibody, human IgG1, kappa, V domains shown)
VH: B1 VH with Q16E, H42P, H79Q, S106T, D113E
VL: B1 VL
notes: Engineered variant; also called Ab29; SS-16917
Human GITR [1]
  Proliferation (Fold over CD3): 2.1 fold over CD3
  Proliferation EC50: 0.028 µg/mL
Human GITR [2]
  EC50: 0.461 µg/mL

B7: 9H6v4 (antibody, human IgG1, kappa, V domains shown)
VH: QVQLVESGGGVVQPGRSLRLSCVASGFTFSSYGMHWIRQAPGKGLEWVAVIWYEGSNKYYADTVKGRFTISRDNSKNTLYLQMNSLRAEDTAVYYCARGGRLGKDYYSGMDVWGQGTTVTVSS
VL: DIQMTQSPSSLSASVGDRVTITCRASQGIRNDLGWYQQKPGKAPKRLIYATSSLQSGVPSRFSGSGSGTEFTLTISSLQPEDFATYYCLQHNTYPWTFGQGTKVEIKR
notes: Engineered variant; also called Ab47; SS-16945
Human GITR [1]
  Proliferation (Fold over CD3): 3.3 fold over CD3
  Proliferation EC50: 0.007 µg/mL
Human GITR [2]
  EC50: 0.095 µg/mL

B8: 33C9v3 (antibody, human IgG1, kappa, V domains shown)
VH: B7 VH with L4V, V23A, I37V, A49S, R101L, K104Y, D105Y, S108Y
VL: B7 VL with A50D, T51A, N92H, T93S
notes: Engineered variant; also called Ab52; SS-16949
Human GITR [1]
  Proliferation (Fold over CD3): 3.1 fold over CD3
  Proliferation EC50: 0.025 µg/mL
Human GITR [2]
  EC50: 0.056 µg/mL

B9: 34G4 (antibody, human IgG1, kappa, V domains shown)
VH: B7 VH with V23A, I37V, T63S, R101Q, K104Y, D105Y, S108Y
VL: B7 VL with A50D, T51A, E70D, H91L, T93S
notes: Fully human parental antibody; also called Ab4; SS-12415
[3]
  IFNg Secretion (Fold over CD3): 1.9 fold over CD3
  IFNg Secretion EC50: 0.0002 µg/mL
[4]
  EC50: 0.038 µg/mL

B10: 33C9v5 (antibody, human IgG1, kappa, V domains shown)
VH: B7 VH with L4V, V23A, I37V, A49S, R101L, K104Y, D105Y, S108Y
VL: B7 VL with R46L, A50D, T51A, N92H, T93S
notes: Engineered variant; also called Ab54; SS-16951
Human GITR [1]
  Proliferation (Fold over CD3): 2.5 fold over CD3
  Proliferation EC50: 0.018 µg/mL
Human GITR [2]
  EC50: 0.068 µg/mL

B11: 33C9v1 (antibody, human IgG1, kappa, V domains shown)
VH: B7 VH with L4V, V23A, I37V, A49S, T63S, R101L, K104Y, D105Y, S108Y
VL: B7 VL with R46L, A50D, T51A, N92H, T93S
notes: Engineered variant; also called Ab50; SS-16948
Human GITR [1]
  Proliferation (Fold over CD3): 2.1 fold over CD3
  Proliferation EC50: 0.018 µg/mL
Human GITR [2]
  EC50: 0.078 µg/mL

B12: 33C9v4 (antibody, human IgG1, kappa, V domains shown)
VH: B7 VH with L4V, V23A, I37V, A49S, D62E, T63S, R101L, K104Y, D105Y, S108Y
VL: B7 VL with R46L, A50D, T51A, N92H, T93S
notes: Engineered variant; also called Ab53; SS-16950
Human GITR [1]
  Proliferation (Fold over CD3): 2.6 fold over CD3
  Proliferation EC50: 0.017 µg/mL
Human GITR [2]
  EC50: 0.082 µg/mL

B13: 41G5v1 (antibody, human IgG1, kappa, V domains shown)
VH: B7 VH with V23A, I37V, E54P, T63S, R101E, K104R, D105Y, S108Y
VL: B7 VL with I21V, R46L, T51A, T93N, E105D
notes: Engineered variant; also called Ab55; SS-16952
Human GITR [1]
  Proliferation (Fold over CD3): 2.9 fold over CD3
  Proliferation EC50: 0.017 µg/mL
Human GITR [2]
  EC50: 0.06 µg/mL

B14: 33C9 (antibody, human IgG1, kappa, V domains shown)
VH: B7 VH with L4V, V23A, I37V, A49S, T63S, R101L, K104Y, D105Y, S108Y
VL: B7 VL with A50D, T51A, N92H, T93S
notes: Fully human parental antibody; also called Ab2; SS-12413
[3]
  IFNg Secretion (Fold over CD3): 2.7 fold over CD3
  IFNg Secretion EC50: 0.001 µg/mL
[4]
  EC50: 0.035 µg/mL

B15: 1D7 (antibody, human IgG1, kappa, V domains shown)
VH: B7 VH with V23A, I37V, A49T, T63S, R101Q, D105Y, S108Y
VL: B7 VL with A50D, T51A, T93N
notes: Fully human parental antibody; also called Ab1; SS-10942
[3]
  IFNg Secretion (Fold over CD3): 2.2 fold over CD3
  IFNg Secretion EC50: 0.0008 µg/mL
[4]
  EC50: 0.024 µg/mL

B16: 41G5v4 (antibody, human IgG1, kappa, V domains shown)
VH: B7 VH with V23A, I37V, E54P, D62E, T63S, R101E, K104R, D105Y, S108Y
VL: B7 VL with I21V, R46L, T51A, T93N, E105D
notes: Engineered variant; also called Ab58; SS-16954
Human GITR [1]
  Proliferation (Fold over CD3): 2.2 fold over CD3
  Proliferation EC50: 0.015 µg/mL
Human GITR [2]
  EC50: 0.068 µg/mL

B17: 41G5 (antibody, human IgG1, kappa, V domains shown)
VH: B7 VH with V23A, I37V, E54P, T63S, R101E, K104R, D105Y, S108Y
VL: B7 VL with I21V, T51A, T93N, E105D
notes: Parental fully human antibody; also called Ab7; SS-12428
Human GITR [1]
  Proliferation (Fold over CD3): 3.7 fold over CD3
  Proliferation EC50: 0.004 µg/mL
Human GITR [2]
  EC50: 0.055 µg/mL

B18: 41G5v5 (antibody, human IgG1, kappa, V domains shown)
VH: B7 VH with V23A, I37V, E54P, R101E, K104R, D105Y, S108Y
VL: B7 VL with I21V, R46L, T51A, T93N, E105D
notes: Engineered variant; also called Ab59; SS-16955
Human GITR [1]
  Proliferation (Fold over CD3): 2.5 fold over CD3
  Proliferation EC50: 0.012 µg/mL
Human GITR [2]
  EC50: 0.064 µg/mL

B19: 33F6 (antibody, human IgG1, kappa, V domains shown)
VH: B7 VH with V23A, S31N, I37V, E54V, T63S, R101E, G103R, K104L, D105Y, S108Y
VL: B7 VL with T51A, I75V, H91L, T93S
notes: Fully human parental antibody; also called Ab3; SS-12414
[3]
  IFNg Secretion (Fold over CD3): 2.8 fold over CD3
  IFNg Secretion EC50: 0.0004 µg/mL
[4]
  EC50: 0.053 µg/mL

B20: 33C9 (antibody, human IgG1, kappa, V domains shown)
VH: B7 VH with L4V, V23A, I37V, A49S, T63S, R101L, K104Y, D105Y, S108Y
VL: B7 VL with A50D, T51A, N92H, T93S
notes: Parental fully human antibody; also called Ab2; SS-12413
Human GITR [1]
  Proliferation (Fold over CD3): 2.7 fold over CD3
  Proliferation EC50: 0.01 µg/mL
Human GITR [2]
  EC50: 0.06 µg/mL

B21: 9H6v5 (antibody, human IgG1, kappa, V domains shown)
VH: B7 VH with D62E, T63S
VL: B7 VL with R46L
notes: Engineered variant; also called Ab48; SS-16946
Human GITR [1]
  Proliferation (Fold over CD3): 1.9 fold over CD3
  Proliferation EC50: 0.011 µg/mL
Human GITR [2]
  EC50: 0.38 µg/mL

B22: 7A10 (antibody, human IgG1, kappa, V domains shown)
VH: B7 VH with V23A, I37V, V48M, E54V, T63S, R87S, R101E, K104R
VL: B7 VL with T51A, L89Q, T93S
notes: Fully human parental antibody; also called Ab18; SS-10944
[3]
  IFNg Secretion (Fold over CD3): 2.2 fold over CD3
  IFNg Secretion EC50: 0.0002 µg/mL
[4]
  EC50: 0.027 µg/mL

B23: 41G5v3 (antibody, human IgG1, kappa, V domains shown)
VH: B7 VH with V23A, I37V, E54P, R101E, K104R, D105Y, S108Y
VL: B7 VL with I21V, T51A, T93N, E105D
notes: Engineered variant; also called Ab57; SS-16953
Human GITR [1]
  Proliferation (Fold over CD3): 3.4 fold over CD3
  Proliferation EC50: 0.007 µg/mL
Human GITR [2]
  EC50: 0.06 µg/mL

B24: 9H6v6 (antibody, human IgG1, kappa, V domains shown)
VH: B7 VH
VL: B7 VL with R46L
notes: Engineered variant; also called Ab49; SS-16947
Human GITR [1]
  Proliferation (Fold over CD3): 1.5 fold over CD3
  Proliferation EC50: 0.011 µg/mL
Human GITR [2]
  EC50: 0.411 µg/mL
